Results reported in the supplement of paper PMC7877785.
± gives the uncertainty stated by the source.

Assay: self-splicing fitness, log relative to wild type (ln ratio); higher = more splicing; Tetrahymena group I intron in knt gene, E. coli kanamycin selection, DiMSum; sequences stand for … in CUCUCU…GGAGGGAAAAGUUAUCAGGCAUGCACCUGGUAGCUAGUCUUUAAACCAAUAGAUUGCAUCGGUUUAAAAGGCAAGACCGUCAAAUUGCGGGAAAGGGGUCAACAGCCGUUCAGUACCAAGUCUCAGGGGAAACUUUGAGAUGGCCUUGCAAAGGGUAUGGUAAUAAGCUGACGGACAUGGUCCUAACCACGCAGCCAAGUCCUAAGUCAACAGAUCUUCUGUUGAUAUGGAUGCAGUUCACAGACUAAAUGUCGGUCGGGGAAGAUGUAUUCUUCUCAUAAGAUAUAGUCGGACCUCUCCUUAAUGGGAGCUAGCGGAUGAAGUGAUGCAACACUGGAGCCGCUGGGAACUAAUUUGUAUGCGAAAGUAUAUUGAUUAGUUUUGGAGUACUCGUGGUCG
Procedure, shortened: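 DiMSum derived fitness as the error-weighted combination of fold changes across replicates, kanamycin versus no kanamycin, normalised to wild type. E. coli BL21(DE3) held the library, which randomised all eight P1ex-region intron nucleotides within the knt kanamycin-resistance gene on pET-22b(+). Six replicate transformations grew overnight at 37°C or 30°C on LB agar with or without 25 μg/mL kanamycin, also containing 100 μg/mL carbenicillin, 50 μM IPTG and 0.2% rhamnose, and pooled colonies were amplicon-sequenced on an Illumina HiSeq 2500.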

Row | Sequence | self-splicing fitness (ln) (30 °C) | self-splicing fitness (ln) (37 °C)
1 | CAUCAGCAAUAUUACGAGUU | -4.08 ± 0.19 | -2.53 ± 0.12
2 | CGAUAGCAAUAUUACGUUUC | – | -2.12 ± 0.15
3 | CGCCAGCAAUAUUACGCAAC | -3.25 ± 0.27 | -3.44 ± 0.42
4 | GUACAGCAAUAUUACGCUCA | -1.07 ± 0.091 | -0.188 ± 0.11
5 | UACGAGCAAUAUUACGGGAG | -3.43 ± 0.22 | -2.72 ± 0.39
6 | GUCGAGCAAUAUUACGUUGA | -2.98 ± 0.16 | -3.79 ± 0.34
7 | CUGGAGCAAUAUUACGGGUA | -2.59 ± 0.23 | -1.77 ± 0.26
8 | CCCUAGCAAUAUUACGAAAU | -2.88 ± 0.21 | -2.59 ± 0.31
9 | UAAUAGCAAUAUUACGAGCG | -1.02 ± 0.1 | -0.261 ± 0.15
10 | GUUAAGCAAUAUUACGAGGC | -3.2 ± 0.28 | -1.34 ± 0.3
11 | GUUAAGCAAUAUUACGGUCC | -0.666 ± 0.12 | 0.191 ± 0.15
12 | UUGUAGCAAUAUUACGAUGU | -3.86 ± 0.29 | -0.334 ± 0.12
13 | ACCCAGCAAUAUUACGGUCG | -3.85 ± 0.14 | -1.75 ± 0.095
14 | GAUGAGCAAUAUUACGGCGG | -3.43 ± 0.3 | -1.88 ± 0.26
15 | GGAAAGCAAUAUUACGGGGG | -3.94 ± 0.26 | -1.45 ± 0.21
16 | UUAGAGCAAUAUUACGUGAG | -1.88 ± 0.083 | -0.875 ± 0.13
17 | GUUAAGCAAUAUUACGCCGC | -3.02 ± 0.21 | -2.03 ± 0.31
18 | CAGGAGCAAUAUUACGCCCA | -2.13 ± 0.38 | -1.18 ± 0.27
19 | CAUCAGCAAUAUUACGACUC | -1.82 ± 0.26 | -0.687 ± 0.23
20 | UACCAGCAAUAUUACGCGAC | -3.1 ± 0.11 | -1.58 ± 0.12
21 | AUACAGCAAUAUUACGCUUG | -1.35 ± 0.08 | -0.94 ± 0.1
22 | GUAUAGCAAUAUUACGACCG | -2.97 ± 0.35 | -0.999 ± 0.26
23 | GGCAAGCAAUAUUACGGGUU | -0.709 ± 0.077 | -0.607 ± 0.08
24 | AAUGAGCAAUAUUACGAAAU | -2.14 ± 0.28 | -1.36 ± 0.34
25 | CGCGAGCAAUAUUACGUCAA | -2.88 ± 0.31 | –

Row | Sequence | self-splicing fitness (ln) (30 °C) | self-splicing fitness (ln) (37 °C)
26 | CUUUAGCAAUAUUACGUUGG | -3.1 ± 0.24 | -1.86 ± 0.27
27 | GUGCAGCAAUAUUACGGGAA | -3.67 ± 0.25 | -1.9 ± 0.13
28 | ACAAAGCAAUAUUACGAUGU | -3.56 ± 0.11 | -2.43 ± 0.12
29 | CGUUAGCAAUAUUACGGAAG | -1.02 ± 0.12 | -0.829 ± 0.12
30 | UUCUAGCAAUAUUACGACCU | -0.905 ± 0.42 | -2.63 ± 0.44
31 | GCAAAGCAAUAUUACGCUUU | -3.49 ± 0.15 | -3.27 ± 0.22
32 | AUGGAGCAAUAUUACGUCGG | -2.7 ± 0.26 | -1.13 ± 0.24
33 | AAUCAGCAAUAUUACGAGUU | -0.331 ± 0.049 | 0.000416 ± 0.074
34 | CAUCAGCAAUAUUACGAAUC | -1.97 ± 0.13 | -1.25 ± 0.12
35 | AGCAAGCAAUAUUACGGUUA | -0.707 ± 0.08 | 0.127 ± 0.08
36 | ACCAAGCAAUAUUACGCGCA | -0.525 ± 0.054 | -0.106 ± 0.07
37 | UGUCAGCAAUAUUACGACCC | -0.106 ± 0.22 | 0.358 ± 0.26
38 | UUAUAGCAAUAUUACGUUCU | -2.18 ± 0.15 | -1.11 ± 0.16
39 | CCCUAGCAAUAUUACGUGGG | -3.48 ± 0.1 | -2.54 ± 0.14
40 | AGGCAGCAAUAUUACGCACA | -0.332 ± 0.092 | 0.275 ± 0.11
41 | ACUAAGCAAUAUUACGCUGU | -2.77 ± 0.17 | -2.58 ± 0.35
42 | UUUUAGCAAUAUUACGGGAU | -3.93 ± 0.32 | -1.48 ± 0.17
43 | GGAUAGCAAUAUUACGGUCG | -0.0227 ± 0.077 | 0.199 ± 0.094
44 | UGUUAGCAAUAUUACGUGAU | -1.77 ± 0.14 | -1.96 ± 0.25
45 | CUAAAGCAAUAUUACGGUGC | -3.22 ± 0.16 | -3.15 ± 0.25
46 | CAACAGCAAUAUUACGACAA | -3.37 ± 0.21 | -2.29 ± 0.14
47 | AGGAAGCAAUAUUACGUCAG | -2.97 ± 0.25 | -2.41 ± 0.33
48 | CUGGAGCAAUAUUACGGAAU | – | -2.05 ± 0.36
49 | UGGUAGCAAUAUUACGCCGU | -1.56 ± 0.27 | -1.42 ± 0.36
